Measurements reported in patent publication US6127136A, “Detection of dioxin-like compounds by detection of transformed Ah receptor/ARNT complex” (Paracelsian, Inc., priority 1996, dated 2000).

Columns and labels:
[1] = molecular target: transformed Ah receptor/ARNT complex (Cavia porcellus, UniProt Q6J287); assay: mini-Ah immunoassay with anti-ARNT detection of transformed Ah receptor/ARNT complex; format: biochemical, guinea pig (male Hartley, hepatic cytosol); parameters: AHR/ARNT heterodimer on DRE gel, anti-ARNT detection; in some samples recombinant baculovirus ARNT (Bradfield) added; settings: Example 4
transformed Ah receptor/ARNT complex, sequence (Q6J287 10-846): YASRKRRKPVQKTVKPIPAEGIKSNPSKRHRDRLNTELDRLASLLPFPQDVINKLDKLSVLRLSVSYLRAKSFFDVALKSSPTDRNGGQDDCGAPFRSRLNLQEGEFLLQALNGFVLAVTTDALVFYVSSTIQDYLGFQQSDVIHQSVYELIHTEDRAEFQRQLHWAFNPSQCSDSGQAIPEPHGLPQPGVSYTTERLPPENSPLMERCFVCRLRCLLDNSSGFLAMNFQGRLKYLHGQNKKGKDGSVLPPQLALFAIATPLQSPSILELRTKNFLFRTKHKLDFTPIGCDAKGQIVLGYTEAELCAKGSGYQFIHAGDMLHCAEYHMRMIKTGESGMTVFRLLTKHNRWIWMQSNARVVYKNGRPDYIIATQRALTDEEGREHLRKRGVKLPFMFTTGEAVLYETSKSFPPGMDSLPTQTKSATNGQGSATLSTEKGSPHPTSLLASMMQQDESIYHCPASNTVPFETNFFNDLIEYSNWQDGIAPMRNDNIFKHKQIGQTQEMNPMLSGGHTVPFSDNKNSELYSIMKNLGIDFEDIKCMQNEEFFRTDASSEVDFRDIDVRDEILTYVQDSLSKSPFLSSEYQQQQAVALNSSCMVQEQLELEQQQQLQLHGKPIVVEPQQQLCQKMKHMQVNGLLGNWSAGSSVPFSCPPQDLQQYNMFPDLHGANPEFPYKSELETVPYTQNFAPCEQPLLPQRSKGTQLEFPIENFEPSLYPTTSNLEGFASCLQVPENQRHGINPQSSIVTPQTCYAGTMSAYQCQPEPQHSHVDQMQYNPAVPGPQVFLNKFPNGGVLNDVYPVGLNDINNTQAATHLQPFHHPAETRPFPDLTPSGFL
transformed Ah receptor/ARNT complex, sequence (Q0WXX3 1-790 partner): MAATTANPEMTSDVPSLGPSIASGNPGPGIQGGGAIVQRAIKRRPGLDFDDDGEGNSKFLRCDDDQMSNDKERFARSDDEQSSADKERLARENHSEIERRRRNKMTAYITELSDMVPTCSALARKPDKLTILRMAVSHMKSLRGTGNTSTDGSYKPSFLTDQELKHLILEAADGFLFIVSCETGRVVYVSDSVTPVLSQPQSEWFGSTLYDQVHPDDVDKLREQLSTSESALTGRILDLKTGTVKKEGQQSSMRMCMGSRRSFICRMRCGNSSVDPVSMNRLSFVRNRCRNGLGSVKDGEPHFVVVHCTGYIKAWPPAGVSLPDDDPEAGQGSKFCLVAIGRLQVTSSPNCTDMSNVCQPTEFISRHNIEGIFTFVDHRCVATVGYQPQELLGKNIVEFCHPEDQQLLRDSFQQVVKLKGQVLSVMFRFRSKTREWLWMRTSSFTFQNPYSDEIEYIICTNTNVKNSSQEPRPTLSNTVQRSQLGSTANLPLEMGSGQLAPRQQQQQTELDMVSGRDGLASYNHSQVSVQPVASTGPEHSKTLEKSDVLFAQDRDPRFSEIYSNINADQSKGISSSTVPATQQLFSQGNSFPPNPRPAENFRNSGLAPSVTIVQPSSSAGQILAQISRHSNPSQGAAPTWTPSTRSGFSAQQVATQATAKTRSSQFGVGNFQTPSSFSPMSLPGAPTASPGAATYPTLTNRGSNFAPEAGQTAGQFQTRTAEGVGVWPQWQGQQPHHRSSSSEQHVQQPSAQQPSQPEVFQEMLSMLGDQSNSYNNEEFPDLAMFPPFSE
transformed Ah receptor/ARNT complex, sequence (P27540 whole entry partner, the tested form may be a part): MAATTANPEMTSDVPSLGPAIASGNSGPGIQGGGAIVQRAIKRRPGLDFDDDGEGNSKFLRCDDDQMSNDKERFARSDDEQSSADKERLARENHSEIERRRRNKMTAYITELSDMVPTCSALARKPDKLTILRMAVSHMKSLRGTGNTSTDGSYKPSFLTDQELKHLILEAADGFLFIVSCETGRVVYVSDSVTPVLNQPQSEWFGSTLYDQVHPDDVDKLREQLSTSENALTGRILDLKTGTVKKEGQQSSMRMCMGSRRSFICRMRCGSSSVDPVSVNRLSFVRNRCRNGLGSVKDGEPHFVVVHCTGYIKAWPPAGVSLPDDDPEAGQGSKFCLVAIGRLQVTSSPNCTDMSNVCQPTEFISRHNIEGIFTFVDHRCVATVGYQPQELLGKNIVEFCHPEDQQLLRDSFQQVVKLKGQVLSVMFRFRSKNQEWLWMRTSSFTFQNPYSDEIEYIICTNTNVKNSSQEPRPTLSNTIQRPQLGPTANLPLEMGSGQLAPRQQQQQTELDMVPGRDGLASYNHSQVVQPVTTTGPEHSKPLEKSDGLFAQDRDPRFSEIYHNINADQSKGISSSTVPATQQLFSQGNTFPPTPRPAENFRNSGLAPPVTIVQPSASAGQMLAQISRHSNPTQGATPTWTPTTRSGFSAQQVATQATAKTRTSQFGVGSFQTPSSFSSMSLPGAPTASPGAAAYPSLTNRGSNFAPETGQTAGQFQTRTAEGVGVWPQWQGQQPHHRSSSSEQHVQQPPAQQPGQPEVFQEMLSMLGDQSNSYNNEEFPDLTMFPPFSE
Description: (§1) Male Hartley guinea pigs weighing 300-350 g were obtained from Cornell Research Animal Resources, Cornell University, Ithaca, N.Y. Guinea pigs were anaesthetized and killed with carbon dioxide. Livers were perfused in situ with 100 mL ice-cold perfusion buffer, excised, trimmed of connective tissue, poorly perfused liver and gall bladder and weighed. The liver was minced and five mL of ice-cold HEDG per gram liver were added and the whole homogenized in a 50 mL homogenizer with teflon pestle using at 200 rpm for a total of seven strokes. Crude homogenate was centrifuged at 12,500 RPM in 50 mL tubes in a JA17 rotor in a Beckman J2-MI preparative centifuge at 4 degrees C for 20 minutes.
(§2) For a typical mini-Ah immunoassay utilizing 12 samples, 5 mL of Transformed Ah Receptor Affinity Gel slurry described above was pipeted into a 50 mL conical tube. The slurry was washed with 40 mL HEDG and centifuged at 1000 g for 5 min, the supernatant withdrawn and discarded, the pellet washed with 40 mL HEDG, and centrifuged again. After the second centrifugation all but 5 mL of supernatant was withdrawn and the gel thus resuspended in the original volume. 10 mL guinea pig hepatic cytosol was thawed. The thawed cytosol was pooled and then divided into two 5 mL groups and treated with either 5 uL DMSO or 5 uL 10 uM TCDD in DMSO.
(§3) Assembly of transformation mixture:In the preferred embodiment of the mini-Ah immunoassay, each sample was composed of one 1.5 mL microfuge tube with the following sequential additions: 90 uL 4 M NaCl/HEDG, 400 uL Transformed Ah Receptor Affinity Gel slurry and 800 uL cytosol (treated with DMSO or TCDD as described above). The three components described above are the minimum components added at that step of the mini-Ah immunoassay. Any additional materials, such as ARNT, anti-ARNT and anti-Rabbit/alkaline phosphatase conjugate, were sometimes also added at this time as described in the specific examples. After assembly of the samples, the tubes were capped and the samples incubated at room temperature for 2 hours with gentle rocking to allow transformation of the Ah receptor to take place, interaction of transformed Ah receptor and ARNT, and binding of the transformed Ah receptor as a heteromer to the DRE oligonucleotide contained on the Transformed Ah Receptor Affinity Gel.
Immunoprobing of transformed Ah receptor: The nitrocellulose membrane was then removed from the ELIFA apparatus, rinsed briefly with water, and placed in 20 mL blocker containing test antibody. All antibodies were incubated with the nitrocellulose membrane for one hour at room temperature. When the test antibody was anti-Ah receptor/alkaine phosphatase conjugate, 100 uL anti-Ah receptor/alkaline phosphatase conjugate (1:200), per 20 mL blocker was used. When anti-ARNT was added to the transformation mixture, anti-Rabbit/alkaline phosphatase conjugate (Sigma, St. Louis, Mo.) diluted 1:1000 (20 uL to 20 mL blocker) was used to probe the membrane. When ARNT, anti-ARNT and anti-Rabbit or anti-ARNT and anti-Rabbit was added to the transformation mixture, the Immunoprobing step was eliminated.
Immunodetection and densitometry: In all cases the nitrocellulose membrane was rinsed prior to immunodetection 3 times for 5 min each with 100 mL TBST, briefly washed in AP development buffer and developed in freshly made BCIP/NBT developer for 5 min, whereupon the color reaction was stopped by washing the membrane in water.
Quantitative data were obtained by scanning the dried membrane in a Microtek 600ZS scanner in gray scale, 300 dpi, 0% brightness, 0% contrast. Densitometric measurements of the dot-blots were made using ScanAnalysis software (Biosoft, Cambridge U.K.).
Cytosol and DRE affinity gel are prepared as described above. Cytosol is dosed with 1:1000 v/v DMSO (-) or 1:1000 v/v 10 uM 2,3,7,8-tetrachlorodibenzo-p-dioxin in DMSO (+).
Immunoprobing of transformed Ah receptor is as described above with the following probes. […]

[2] = molecular target: T1, transformed Ah receptor (Cavia porcellus, UniProt Q6J287); assay: mini-Ah immunoassay (DRE affinity gel, dot-blot spot density), with or without added recombinant ARNT; format: biochemical, guinea pig (male Hartley, hepatic cytosol)
T1 construct: TCDD-transformed receptor captured as heterodimer on DRE-oligonucleotide gel; recombinant ARNT added in some protocols
T1 sequence (Q6J287 10-846): as the sequence (Q6J287 10-846) above
T1 sequence (Q0WXX3 1-790 partner): as the sequence (Q0WXX3 1-790 partner) above
Description: as §1
Procedure for the mini-Ah Immuno Assay
Preparation of Buffers: 155 uM TCDD stock was prepared by dissolving 1 mg 2,3,7,8-tetrachloro-dibenzo-p-dioxin (Cambridge Isotope Labs) in 20 mL DMSO (dimethylsulfoxide) overnight. 10 uM working dilution of TCDD was prepared by diluting 0.129 mL of the stock with 1.871 mL DMSO. 4M NaCl/HEDG was prepared by adding 116.88 g sodium chloride to 300 mL HEDG and adjusting the volume to 500 mL with HEDG. 0.3 M NaCl/HEDG was prepared by diluting 1.5 mL 4 M NaCl/HEDG to 20 mL with HEDG 0.6 M NaCl/HEDG was prepared by diluting 3.0 mL 4 M NaCl/HEDG to 20 mL with HEDG TBST was prepared by dissolving 1.18 g Tris-base, 6.35 g Tris-HCl, 8.76 g NaCL, and 2 mL Tween 20 in 800 mL water, adjusting volume to 1000 mL. Blocker was prepared by dissolving 10 g non-fat dry milk (Carnation) in 200 mL TBST. AP development buffer was prepared by dissolving 11 g Tris-base, 1.6 g Tris-HCl, 5.84 g Sodium Chloride, 10.2 g Magnesium Chloride hexahydrate, in 800 mL water and adjusting the volume to 1000 mL. BCIP stock was prepared by dissolving 100 mg BCIP (5-Bromo-4-Chloro-3-Indolyl Phosphate) in 2 mL N,N-Dimethylformamide, aliquoting into 66 uL portions, and freezing at -20 C until use. NBT stock was prepared by dissolving 250 mg NBT (Nitro Blue Tetrazolium) in 25 mL water, aliquoting into 660 uL proportions, and storing at -20 C until use. BCIP/NBT developer was prepared immediately before use by mixing one 66 uL aliquot of BCIP and one 660 uL aliquot of NBT in 20 mL AP development buffer.
as §2, §3
Isolation transformed Ah receptor: After the 2 hour incubation the mixtures were pipetted into the empty column barrels and allowed to drain. […]

[3] = tested on: Ah receptor/ARNT complex (TCDD-transformed, endogenous in cytosol); assay: ELONA; settings: EC50 is for TCDD dose, not DNA; 30 C, Ah-ELISA on neutravidin plate, anti-ARNT detection

| Substance | effect of ARNT addition on response [1] | effect of ARNT amount on response ([2]; 0.5 ug vs 2 ug ARNT, Example 2) | effect of ARNT addition on non-TCDD dependent transformation of the Ah receptor ([2]; ARNT 2 ug/assay, Example 1) | increase of TCDD-dependent response by ARNT addition ([2]; ARNT 2 ug/assay, Example 1) | EC50 [3] |
| --- | --- | --- | --- | --- | --- |
| ARNT: Purified recombinant ARNT (Ah Receptor Nuclear Translocator) | improves response | 0.5 ug arnt gave less response than 2 ug ARNT | did not increase non-TCDD dependent transformation of the Ah receptor | 354% | – |
| B-DRE (DRE-D/B-ERD) | – | – | – | – | 0.5 nM |
